The target of data set [1] is T1, AtTGA1:HiBiT (Arabidopsis thaliana, UniProt Q39237 1-368).
T1 sequence: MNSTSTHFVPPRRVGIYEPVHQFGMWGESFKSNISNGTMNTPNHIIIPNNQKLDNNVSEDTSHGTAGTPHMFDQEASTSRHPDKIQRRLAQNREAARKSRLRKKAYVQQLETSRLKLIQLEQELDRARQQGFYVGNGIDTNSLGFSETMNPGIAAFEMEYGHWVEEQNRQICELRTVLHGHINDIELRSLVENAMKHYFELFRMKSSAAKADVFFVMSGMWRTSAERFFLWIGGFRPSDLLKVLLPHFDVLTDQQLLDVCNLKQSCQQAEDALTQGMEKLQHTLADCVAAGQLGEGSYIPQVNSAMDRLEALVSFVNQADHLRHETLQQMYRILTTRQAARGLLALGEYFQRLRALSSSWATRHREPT
Nature of the data set: qTFD (HiBiT luminescence microplate, relative to rnd); qTFD: 25 mM Tris-HCl pH 8.0, 100 mM KCl, 2 mM DTT, 1 mM EDTA, 0.1% BSA, 500 ng poly(dI-dC), 5% glycerol, 0.05% IGEPAL CA630, 1.5-50 nM protein, 1-3 h, room temperature; EMSA as in cited earlier work. The settings on record: protein: recombinant; tags: C-terminal HiBiT (VSGWRLFKKIS); pH9GW vector, Ni-NTA purified; chain copies: 2; label: none; blunt. A general note: A gel shift assay detects complexes by their altered migration in electrophoresis.

The target of data set [2] is T1, AtTGA1:HiBiT. Put plainly: EMSA; 1.5-15 nM protein; reduced by unlabelled competitor; qTFD: 25 mM Tris-HCl pH 8.0, 100 mM KCl, 2 mM DTT, 1 mM EDTA, 0.1% BSA, 500 ng poly(dI-dC), 5% glycerol, 0.05% IGEPAL CA630, 1.5-50 nM protein, 1-3 h, room temperature; EMSA as in cited earlier work. The settings on record: protein: recombinant; tags: C-terminal HiBiT (VSGWRLFKKIS); pH9GW vector, Ni-NTA purified; chain copies: 2; label: Cy5 (primers); blunt.

Data set [3] addresses T1, AtTGA1:HiBiT. Put plainly: qTFD (HiBiT luminescence microplate, relative to rnd); strong rQ; qTFD: 25 mM Tris-HCl pH 8.0, 100 mM KCl, 2 mM DTT, 1 mM EDTA, 0.1% BSA, 500 ng poly(dI-dC), 5% glycerol, 0.05% IGEPAL CA630, 1.5-50 nM protein, 1-3 h, room temperature; EMSA as in cited earlier work. The settings on record: protein: recombinant; tags: C-terminal HiBiT (VSGWRLFKKIS); pH9GW vector, Ni-NTA purified; chain copies: 2; label: none; blunt.

B1: CaMV35s as1 (dsDNA)
DNA 1: ATGAAGACGCTGGGTTTACATGGGAATGGCTGACGTAAGGGATGACGCACATGCTTCTGTTCTAACAGGCTAGGATATAA
DNA 2: TTATATCCTAGCCTGTTAGAACAGAAGCATGTGCGTCATCCCTTACGTCAGCCATTCCCATGTAAACCCAGCGTCTTCAT
Consider B1, for which the binding result with AtTGA1:HiBiT [1] is listed as “binds”.

B2: CaMV35s as1 80 bp Cy5 EMSA probe (dsDNA)
DNA 1: ATGAAGACGCTGGGTTTACATGGGAATGGCTGACGTAAGGGATGACGCACATGCTTCTGTTCTAACAGGCTAGGATATAA
DNA 2: TTATATCCTAGCCTGTTAGAACAGAAGCATGTGCGTCATCCCTTACGTCAGCCATTCCCATGTAAACCCAGCGTCTTCAT
Consider B2, for which the binding result in the data set with AtTGA1:HiBiT [2] is listed as “binds”.

B3: TFBS_02 (dsDNA)
DNA 1: TAGCGAAGTACGATCCCGGACCGCTACATTCCAAATAGTCTGACGTAAGCAATGACAAAACTCACCTACATGGCCATCACGCAGTA
DNA 2: TACTGCGTGATGGCCATGTAGGTGAGTTTTGTCATTGCTTACGTCAGACTATTTGGAATGTAGCGGTCCGGGATCGTACTTCGCTA
Consider B3, for which the binding result with AtTGA1:HiBiT [3] is “binds”.
